Starred links: 1 amine or outer side, 2 acyl side, 3 side chain; linkers in the order of their positions; H or OH if unused. Suc = O=C(CCC(=O)[*:2])[*:1]
How the values were obtained:
[1] = Particle sizing (mean diameter, polydispersity; Coulter N4Plus, unimodal mode); assay type: physicochemical; conditions: condensed DNA 2:1 μg:μg, DNA 0.143 mg/ml, second experiment (Table 18)
Protocol: The liposomes were prepared as follows: 6000 nmol of 1,2-dioleoyl-3-trimethylammonium-propane (DOTAP) (Avanti Polar Lipid Inc., Alabaster, Ala.) at 20 mg/ml in chloroform and 6000 nmol of cholesterol (Avanti Polar Lipid Inc., Alabaster, Ala.), also prepared at 20 mg/ml in chloroform (J. T. Baker, Phillipsburg N.J.), were mixed in a borosilicate tube and dried for 1 hr under nitrogen at 4 liters per minute (LPM) using a N-EVAP™ (Organomation, Berlin, Mass.). The resulting lipid films were hydrated in 2 ml of 5% USP dextrose (Abbott Laboratories, North Chicago, Ill.) to achieve a final lipid concentration of 6 mM. […]
LPDs were prepared as described by Li, S., et al., Gene Therapy, 1998. […] The surface zeta potential was determined using a Malvern zeta sizer (Malvern Instrument Inc, Sacramento, Calif.).
DLPDs were generated by a modified version of the method previously described by Harvie, P., F. M. Wong, and M. B. Bally, Biophys J, 1998. […] Particle sizes were assessed as described above and typically were in the 150-300 nm range.
Typically, 0.15 ml of mixed micelles prepared as describe above were mixed with 350 μl of DNA pre-compacted with protamine at a 2:1 protamine:DNA ratio under mild vortex agitation (speed 3). […] The surface zeta-potential was determined using a Malvern zeta sizer (Malvern Instrument Inc, Sacramento, Calif.). […]

KB cells = assay: In vitro transfection (luciferase expression); assay type: cell-based; conditions: 1 μg DNA/well
Protocol: The following day, the media was removed and replaced with 500 μl of fresh serum-free media.

[2] = Surface zeta potential (Malvern zeta sizer); assay type: physicochemical; conditions: 10 mol % in LPD, 5% dextrose USP pH 5.0
Protocol: LPDs were prepared as described by Li, S., et al., Gene Therapy, 1998. 5(7): p. 930-937. Lipid:protamine:DNA ratios of 12 nmol:0.9 μg:1 μg, 12 nmol:0.97 μg:1 μg, and 12 nmol:1 μg:1 μg were used for these experiments, as indicated. As a typical example, 150 μl of liposomes at 6mM were mixed with 197 μl of 5% dextrose USP followed by the addition of 153 μl of pre-compacted DNA at 490 μg/ml. This operation was performed under moderate vortex agitation (speed #3), and the resulting LPD solution contained 150 μg DNA/ml. […] The surface zeta potential was determined using a Malvern zeta sizer (Malvern Instrument Inc, Sacramento, Calif.).
Typically, 0.15 ml of mixed micelles prepared as describe above were mixed with 350 μl of DNA pre-compacted with protamine at a 2:1 protamine:DNA ratio under mild vortex agitation (speed 3). Particles formed spontaneously, i.e. solution became cloudy. […] Particle sizes were assessed as described above and typically were in the 100-200 nm range as determined using a N4Plus coulter (Beckman Coulter, Miami, Fla.) sizer in unimodal mode. The surface zeta-potential was determined using a Malvern zeta sizer (Malvern Instrument Inc, Sacramento, Calif.). […]
PPAA polymer was supplied by Dr. Allan Hoffman's laboratory (University of Washington, Seattle, Wash.). […] The surface zeta potential was determined using a Malvern zeta sizer (Malvern Instrument Inc, Sacramento, Calif). […]

| Substance | size (nm) [1] | increase in transfection activity when formulated with CHEMS:DOPE compared to peptide-compacted DNA alone (KB cells) | decrease in the zeta-potential versus conventional LPD [2] |
| --- | --- | --- | --- |
| KHKHKHKHKGKHKHKHKHK | 25 nm | No change in the transfection activity |  |
| DSPE-PEG5K-succinyl-ACDCRGDCFCG-COOH ({DSPE-PEG5K-Suc}-ACDCRGDCFCG-OH; cysteine pairing not given here) [DSPE-PEG5K-RGD, targeting factor-pegylated lipid conjugate] |  |  | 15 mV |
